Measured values taken from patent publication US11214614B2, “LTBP complex-specific inhibitors of TGFβ and uses thereof” (Scholar Rock, Inc., priority 2019, dated 2022).

What was measured:
[1] = literature reports (Frazier et al. 2007; Stauber et al. 2014, chronic ≥3 months); cited from earlier work
[2] = tested on: TGFβ downstream tonic signaling; test: TGFβ downstream tonic signaling in non-diseased rat BAL; assay type: in vivo
Source text: Indeed, data presented herein support this notion. […] Preferably, TGFβ antagonists for use in the treatment of such conditions exert their inhibitory activities only towards the disease-induced or disease-associated isoform, while preserving the function of the other isoforms that are normally expressed to mediate tonic signaling in the tissue. […] Alternatively or additionally, agents that target and block integrin-dependent activation of TGFβ may be capable of blocking only a subset of integrins responsible for disease-associated TGFβ1 activation, among numerous integrin types that are expressed by various cell types and play a role in the pathogenesis. Furthermore, even where such antagonists may selectively block integrin-mediated activation of the TGFβ1 isoform, it may be ineffective in blocking TGFβ1 activation triggered by other modes, such as protease-dependent activation. Accordingly, the isoform-specific inhibitors of TGFβ1 such as those described herein are aimed to prevent the activation step of TGFβ1 regardless of the particular mode of activation, while maintaining isoform selectivity.

[3] = Stauber et al. 2014, chronic (≥3 months) administration; cited from earlier work
[4] = in vivo; cited from earlier work
[5] = Four-week toxicology study in rats; assay type: in vivo, rat
Source text: Maximally tolerated dose (MTD): The term MTD generally refers to, in the context of safety/toxicology considerations, the highest amount of a test article (such as a TGFβ1 inhibitor) evaluated with no observed adverse effect level (NOAEL).
Therapeutic window: The term “therapeutic window” refers to a range of doses/concentrations that produces therapeutic response without causing significant/observable/unacceptable adverse effect (e.g., within adverse effects that are acceptable or tolerable) in subjects. Therapeutic window may be calculated as a ratio between […].
Toxicity: As used herein, the term “toxicity” or “toxicities” refers to unwanted in vivo effects in patients associated with a therapy administered to the patients, such as undesirable side effects and adverse events. “Tolerability” refers to a level of toxicities associated with a therapy or therapeutic regimen, which can be reasonably tolerated by patients, without discontinuing the therapy due to the toxicities (i.e., acceptable level of toxicities). Typically, toxicity/toxicology studies are carried out in one or more preclinical models prior to clinical development to assess safety profiles of a drug candidate (e.g., monoclonal antibody therapy). […]

[6] = tested on: male C57BL/6J mice on CDHFD (liver fibrosis); test: Choline-deficient high fat diet (CDHFD) model of mouse NASH, liver hydroxyproline content; assay type: in vivo; details: 15 mg/kg twice a week i.p., weeks 4 through 12 of CDHFD
Source text: The Choline deficient high fat diet (CDHFD) is an established diet-induced model of Non-Alcoholic steatohepatitis (NASH). In this model, male C57BL/6J mice are fed a choline deficient, 0.10% Methionine, high fat diet for 12 weeks. Three to six weeks after the start of the CDHFD, activation of pro-fibrotic processes can be detected through increased expression of α-smooth muscle actin (α-SMA) protein, a marker for activation of hepatic stellate cells, and elevated tissue hydroxyproline content reflecting increased collagen synthesis and deposition (Matsumoto et. al, Int J Exp Pathol. 2013 April; 94(2):93-103).
LTBP complex-specific antibodies were tested for their ability to inhibit and/or reduce the extent of liver fibrosis in mice in the CDHFD model as follows. An outline of the study is shown below in Table 21.
Animals in the test cohorts were on the CDHFD for the duration of the study. A separate cohort of mice (Group 1) were administered a regular chow diet as a study control. Antibodies SR-AB42 and SR-AB31 were administered to mice by intraperitoneal (i.p.) injection beginning at 4 weeks post start of the CDHFD. Animals were dosed at antibody test concentrations 15 mg/kg twice a week (i.e., 30 mg/kg/week) for a test duration of 8 weeks (i.e., weeks 4 through 12). […] Endpoint readout was hydroxyproline content. […]

huLTBP1 proTGFβ1 = huLTBP1 proTGFβ1 (Homo sapiens, UniProt P01137+Q14766); test: Octet (BLI) binding, IgG captured on AHC tips, antigen at 100 nM; details: Table 9, cycle 3, IgG1-agly
Method in brief: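 Antibodies were captured on anti-human Fc biosensors at 1 μg/mL (~7 nM), to a maximum response of 1 nm. Antigen complex was run at a single 100 nM in 1× kinetics buffer, shaking at 1000 rpm. Association was 3 min and dissociation 3 min (5 min in later rounds), with KD from a local, full 1:1 fit.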

huLTBP3 proTGFβ1 = huLTBP3 proTGFβ1 (Homo sapiens, UniProt P01137+Q9NS15); test: as above; details: Table 9, cycle 3, IgG1-agly
Method in brief: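 Antibodies loaded at 1 μg/mL onto anti-human Fc sensors were exposed to each TGFβ1 complex at 100 nM in kinetics buffer. Association ran 3 min; dissociation was 3 min in one protocol and 5 min in another. KD came from a 1:1 fitting model.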

Chain of huLTBP3 proTGFβ1 (P01137 30-390): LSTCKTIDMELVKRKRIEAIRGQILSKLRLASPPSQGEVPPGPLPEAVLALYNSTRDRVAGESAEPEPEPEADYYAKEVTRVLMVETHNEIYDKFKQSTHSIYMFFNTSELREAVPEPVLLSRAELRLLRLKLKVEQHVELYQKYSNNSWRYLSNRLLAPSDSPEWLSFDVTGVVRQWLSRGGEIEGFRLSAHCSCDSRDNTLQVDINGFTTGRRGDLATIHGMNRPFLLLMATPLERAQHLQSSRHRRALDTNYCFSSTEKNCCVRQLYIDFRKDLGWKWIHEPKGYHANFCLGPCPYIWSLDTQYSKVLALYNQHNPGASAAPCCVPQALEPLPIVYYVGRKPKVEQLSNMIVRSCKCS
Chain of huLTBP3 proTGFβ1 (Q9NS15 44-1303): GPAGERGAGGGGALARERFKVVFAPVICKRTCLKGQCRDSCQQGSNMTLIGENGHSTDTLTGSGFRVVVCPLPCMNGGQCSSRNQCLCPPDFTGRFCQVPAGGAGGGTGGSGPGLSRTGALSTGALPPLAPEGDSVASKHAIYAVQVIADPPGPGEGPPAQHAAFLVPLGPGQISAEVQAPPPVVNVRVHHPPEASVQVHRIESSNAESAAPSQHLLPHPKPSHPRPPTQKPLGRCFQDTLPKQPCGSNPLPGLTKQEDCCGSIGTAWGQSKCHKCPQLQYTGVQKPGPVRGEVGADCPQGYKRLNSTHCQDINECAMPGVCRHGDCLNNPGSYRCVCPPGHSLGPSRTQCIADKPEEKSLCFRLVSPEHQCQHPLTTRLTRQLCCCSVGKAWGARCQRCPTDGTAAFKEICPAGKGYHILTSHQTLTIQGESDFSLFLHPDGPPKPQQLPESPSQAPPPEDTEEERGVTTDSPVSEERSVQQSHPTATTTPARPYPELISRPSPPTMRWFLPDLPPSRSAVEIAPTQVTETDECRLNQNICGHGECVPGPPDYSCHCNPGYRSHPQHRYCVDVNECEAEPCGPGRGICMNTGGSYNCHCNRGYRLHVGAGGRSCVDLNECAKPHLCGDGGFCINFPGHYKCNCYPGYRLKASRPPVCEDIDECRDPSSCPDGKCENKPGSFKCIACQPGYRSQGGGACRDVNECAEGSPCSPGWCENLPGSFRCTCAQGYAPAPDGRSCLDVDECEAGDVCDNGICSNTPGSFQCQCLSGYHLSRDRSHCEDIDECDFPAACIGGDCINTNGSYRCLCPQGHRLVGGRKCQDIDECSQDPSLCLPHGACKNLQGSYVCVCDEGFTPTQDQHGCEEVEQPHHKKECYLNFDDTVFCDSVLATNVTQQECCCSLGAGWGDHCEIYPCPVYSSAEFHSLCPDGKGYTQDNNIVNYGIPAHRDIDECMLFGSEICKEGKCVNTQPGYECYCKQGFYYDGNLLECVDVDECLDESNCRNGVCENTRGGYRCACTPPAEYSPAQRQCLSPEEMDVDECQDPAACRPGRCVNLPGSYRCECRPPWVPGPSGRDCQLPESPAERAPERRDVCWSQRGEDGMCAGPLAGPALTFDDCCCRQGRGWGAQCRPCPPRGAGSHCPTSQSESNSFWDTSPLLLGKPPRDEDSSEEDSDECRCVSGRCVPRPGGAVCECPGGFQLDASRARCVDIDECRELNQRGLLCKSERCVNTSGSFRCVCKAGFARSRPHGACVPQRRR
Chain of huLTBP1 proTGFβ1 (P01137 30-390): as the sequence (P01137 30-390) above
Chain of huLTBP1 proTGFβ1 (Q14766 347-1721 limits assumed): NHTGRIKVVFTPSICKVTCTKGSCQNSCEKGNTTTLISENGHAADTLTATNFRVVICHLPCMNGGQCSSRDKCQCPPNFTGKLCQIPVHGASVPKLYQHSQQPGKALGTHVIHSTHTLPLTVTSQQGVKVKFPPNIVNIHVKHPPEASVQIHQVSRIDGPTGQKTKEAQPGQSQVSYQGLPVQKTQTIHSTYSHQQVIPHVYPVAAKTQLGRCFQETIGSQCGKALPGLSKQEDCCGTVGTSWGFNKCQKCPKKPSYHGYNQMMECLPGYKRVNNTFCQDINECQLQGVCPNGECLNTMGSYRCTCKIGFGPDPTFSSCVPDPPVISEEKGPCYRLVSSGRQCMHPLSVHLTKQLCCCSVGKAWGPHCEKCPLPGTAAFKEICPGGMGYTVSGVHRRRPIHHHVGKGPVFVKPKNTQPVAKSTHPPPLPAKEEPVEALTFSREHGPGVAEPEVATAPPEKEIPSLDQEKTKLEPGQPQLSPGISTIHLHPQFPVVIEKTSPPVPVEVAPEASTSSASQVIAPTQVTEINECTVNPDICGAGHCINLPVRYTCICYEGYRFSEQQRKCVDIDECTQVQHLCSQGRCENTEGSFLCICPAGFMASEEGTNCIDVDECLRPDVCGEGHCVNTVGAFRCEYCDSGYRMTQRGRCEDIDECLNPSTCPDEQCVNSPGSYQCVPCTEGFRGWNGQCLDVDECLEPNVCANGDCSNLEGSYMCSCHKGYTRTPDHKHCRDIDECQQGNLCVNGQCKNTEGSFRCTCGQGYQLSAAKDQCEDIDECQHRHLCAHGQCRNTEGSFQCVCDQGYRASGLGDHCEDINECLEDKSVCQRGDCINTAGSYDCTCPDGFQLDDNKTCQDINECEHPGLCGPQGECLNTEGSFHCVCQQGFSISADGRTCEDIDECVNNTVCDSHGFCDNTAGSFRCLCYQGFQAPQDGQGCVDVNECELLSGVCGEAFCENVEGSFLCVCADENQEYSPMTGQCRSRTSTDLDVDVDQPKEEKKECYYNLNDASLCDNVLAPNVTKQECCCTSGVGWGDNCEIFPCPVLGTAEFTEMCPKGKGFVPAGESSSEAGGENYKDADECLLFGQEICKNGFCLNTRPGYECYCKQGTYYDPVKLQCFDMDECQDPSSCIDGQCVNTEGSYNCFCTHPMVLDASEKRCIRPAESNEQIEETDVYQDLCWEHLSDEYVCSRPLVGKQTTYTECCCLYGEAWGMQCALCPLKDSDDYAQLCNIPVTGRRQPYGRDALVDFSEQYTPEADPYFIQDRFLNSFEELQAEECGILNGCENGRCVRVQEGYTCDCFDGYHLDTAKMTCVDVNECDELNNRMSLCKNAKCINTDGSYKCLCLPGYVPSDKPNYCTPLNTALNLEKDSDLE

In the case of `O=C(NC1CCOCC1)c1ccc(-c2cc(-c3c[nH]nc3-c3ccccn3)ccn2)cc1` [GW788388], the Toxicity in rats [1] is listed as “induced physeal dysplasia in rats”.

For `c1ccc(-c2nn3c(c2-c2ccnc4cc(OCCN5CCOCC5)ccc24)CCC3)nc1` [LY2109761], the “TGFβ downstream tonic signaling” value [2] was “inhibit TGFβ downstream tonic signaling in non-diseased rat BAL”.

In the case of `Cc1cccc(-c2nn3c(c2-c2ccnc4ccc(C(N)=O)cc24)CCC3)n1` [LY2157299], the Toxicity in dogs [3] is given as “caused multiple organ toxicities involving the cardiovascular, gastrointestinal, immune, bone/cartilage, reproductive, and renal systems” and the Toxicity in rats [1] is given as “caused multiple organ toxicities involving the cardiovascular, gastrointestinal, immune, bone/cartilage, reproductive, and renal systems”.

In the case of “GC1008: a “pan” TGFβ antibody capable of neutralizing all human isoforms of TGFβ”, the “Exposure, DN Cmax, Human” value [4] is listed as “DN Cmax ~(350 ng/mL) (ng/mL) mg” and the “Exposure, Half-life, Human” value [4] is listed as “Half-life: 21.7 d”.

B1: Ab2: TGFβ1 inhibitor test article of a four-week rat toxicology study; b152 gives same data for a context-independent TGFβ1 inhibitor antibody (antibody, V domains shown)
VH: QVQLVQSGAEVKKPGASVKVSCKASGYTFTSYGISWVRQAPGQGLEWMGWISAYNGNTNYAQKLQGRVTMTTDTSTSTAYMELRSLRSDDTAVYYCARAPLGNFDSWGQGTMVTVSS
VL: NFMLTQPHSVSESPGKTVTISCTRSSGSIASNYVQWYQQRPGSSPTTVIYEDNQRPSGVPDRFSGSIDSSSNSASLTISGLKTEDEADYYCQSYDSSNHPVVFGGGTKLTVL
With B1 the MTD [5] was greater than 100 mg/kg and the NOAEL ([5]; highest dose evaluated) was 100 mg/kg.

B2: SR-AB31: cycle 3 light chain-optimized antibody, lineage SR-AB22; CDRs SEQ ID NO: 124-129 (antibody, V domains shown)
VH: QVQLVESGGGVVQPGRSLRLSCAASGFTFRSYVMHWVRQAPGKGLEWVAVISHEGSLKYYADSVKGRFTISRDNSKNTLYLQMNSLRAEDTAVYYCAVPRIAARRGGFGYWGQGTLVTVSS
VL: NFMLTQPHSVSESPGKTVTISCTRSSGNIDNNYVQWYQQRPGSSPTTVIYEDNQRPSGVPDRFSGSIDSSSNSASLTISGLKTEDEADYYCQSYDFNNQGVVFGGGTKLTVL
In the case of B2, the “Hydroxyproline (HYP) in liver tissue” value [6] is reported as “inhibited the increase in HYP”, the “Hu LTBP1-proTGFβ1 Kon” value (huLTBP1 proTGFβ1; 1:1 fit) is reported as 240000 M⁻¹ s⁻¹ and the “Hu LTBP1-proTGFβ1 Koff” value (huLTBP1 proTGFβ1; 5-minute dissociation) is reported as 9.89e-05 s⁻¹. The “Hu LTBP3-proTGFβ1 Kon” value (huLTBP3 proTGFβ1; 1:1 fit) was 308000 M⁻¹ s⁻¹ and the “Hu LTBP3-proTGFβ1 Koff” value (huLTBP3 proTGFβ1; 5-minute dissociation) was 6.81e-05 s⁻¹.
